Measurements taken from a protein production outcome set (Wang et al. 2014).

Experiment: label from the status in PepcDB records

Sequence	protein production
MANCFAPQLTFPSFSPRHFSPRMSHQSPKPSTSTTTSIFTSATKLLWGPSLPPGLLISTARTAWTTVWQLMMTQLAPSDSSGSYTRPTSKFRLDPTQFTSAASSELHLYVGLPCPWAHRTLIVRALKGLNDAVPVSIASPGQDGSWEFKNNNIPIKDKDKLIPSLDKANRCRNLKEVYKSRSGGYDGRCTVPMLWDLRKKDVVCNESYDIIEFFNSGLNKLARNDNLDLSPPELKEMIQGWNQIVYPKVNNGVYRCGFAQSQEAYDGAVNELFSTLDEIEDHLGSNRYLCGERLTLADVCLFTTLIRFDSVYNILFKCTKKKLVEYPNLYGYLREIYQIPGVAATCDISAIMDGYYKTLFPLNASGIQPAISSSGDQDSLWRPHNRDLVGKAIEAQLSV	failed
MANDGATVFWLSFLAIILGFLSWKFKKIGGISLIAISIYGLFVNGLFFIFAFVFLMIAGILSFKIKPTSPKDVKIAN	failed
MANDGYFEPTQELSDETRDMHRAIISLREELEAVDLYNQRVNACKDKELKAILAHNRDEEKEHAAMLLEWIRRCDPAFDKELKDYLFTNKPIAHE	not failed
MANFKVVVSDPKEARAYQIDIKDAEANALIGKSIGDVVDGSIFGLAGYKVQITGGCDGSGFVMKPDLPGPRRQRILTATGVGYVPKLPGQRRRKMMRGKEIAPDIVQVNAKVVEYGSKSIKALLGLETAEEAPAAELEHHHHHH	not failed
MANGPGCACPRCGAPRASGPECPRCGVIYAKARARAAPSPAPSGPGTSLPDPGAAGLALGMPARARWSGELDGARRELWIRAVAPPAALLLALALVSSGPGHALLRTFLSMWIHELGHAVTAWLCGHGAFPGPWRTPISSGRLPLVVIAVSGALAALAWRGWRSGRRAILAAGAAGLGVQLVCTLLPATTARALITFGGDAGCMVIGAALVATIWADPEGPLGRGSLRWGFLVIGAAALVDALHGWVRAWRDPGELPLGEIEGVGLSDASTLMQVHRWSASALSGRYVALGLACLAALGATYAVMLARARGAVAAERRAA	failed
MANGTTPSVGIALGSGAAKGWAHIGVLNGLAAMGIKPDKVAGCSVGALVGAAYAHDHLPELEEWVRSFSSWDVLGLMDIRWRKGGLIGGDKVFDVLQARIGDVNIENLNRPFAAVATDLYSGQEIWFTEGDLRQAVRASCSMPGILAPVRQGDRWLVDGAVVNPVPVSVSRAMGVDVVIAVDLYGYHSGRIQVLPVSMTSQKNVEAEMDMSARQETGFMDLFARGRDYVSNLTDKFSLGTKSNPGMIAVMSQSMGILEQRHKRARLMGDPPDICIVPEVGNIGTMEFHRADEAIAAGEAAVEKVAHLIEAALWKG	not failed
MANHVSLILPPLSLYIHIPWCVQKCPYCDFNSHTQKGTIPEAEYIQHLLADLSQDLVTYKTAIANRKIHSIFIGGGTPSLFSAEAIAYLLAEIKQRIAFAPKIEITLEANPGTAEAERFICYTEAGINRISMGIQSFEEEKLRKLGRIHDAHEAKQAVYFAKNALISPSRTVGLHSFNLDLMHGLPNQTLEQALADLNTAISLNPPHFSWYQLTIEPNTMFYYRQPTLPDDDELWAIFEQGHQLLTMAGYQQYETSAYAKQGFQCQHNLNYWRFGDYLAIGCGAHGKISYPSGEIYRFSKTKHPKGYMRGDYRDSQQSIQLDDRPFEFFMNRFRLLEPTPKQEFECYTGLDCERVRPTIDWALNKHYISETSTTWQVTQKGKLFLNELLAGFLTLEHHHHHH	failed
MANVAIIGTEKSGRTSLAANLGKKGTSSDITMYNNDKEGRNMVFVDAHSYPKTLKSLITALNISDIAVLCIPPQGLDAHTGECIIALDLLGFKHGIIALTRSDSTHMHAIDELKAKLKVITSGTVLQDWECISLNTNKSAKNPFEGVDELKARINEVAEKIEAENAELNSLPARIFIDHAFNVTGKGCVVLGVVKQGISKDKDKTKIFPLDRDIEIRSIQSHDVDIDSAPAGTRVGMRLKNVQAKDIERGFIISDKEIVTTDYTLECTVSKFTKKIEPASVLHLFVGLQSEPVRVEKILVDGNEVEEAKPGSTCVLELSGNKKLAYSKQDRFLLANLDLTQRFAAYGFSK	not failed
MANVDRRQMLLLSGLGATAAVLPVPRAAAVPNQTAASYVFADEFDGPAGSAPSAAKWTIAKARETIQDPTYWEQPGRIGQYRNDRRNVFLDGKSNLVIRAAKDGDTYYSAKLASVWEGGAGHTWEARIKFNCLTAGAWPAFWLGNTGEGELDIIEWYGNGSWPSATTVHAKSNGGEWKTHNIAVDNGWHRWRTQWDAEGARFWLDYTDGAQPYFEVAASSLPDWPFDQPGYTMFVVLNLAVAGSGGGDPSGGTYPADMLVDWVRVW	not failed
